Results: the DeepSol protein solubility set

Experiment: soluble on expression in E. coli; label from the status in PepcDB or PDB records

Sequence | soluble on expression in E. coli
MANQCFNQAKAVLEFRLDPCHLPQTTTYFSSKTGNQMICSLSERGVFFKTDTFSSLSRLVPSYQFKGIAARTVITLSGEKAVALELLHANEESCVPLLVSRDLNNVLLDWRLWADTYSLPMLMINEDNRLVVVKDRSDLRRFFSTTLHFRKKRFLLRYRNPLGLRLMIANQVAL | not soluble
MLAKQRFVLDTTAFTDNQLRELLGDGDLNLSVDRMLDLIARSRIKLNISCHMPPITYKEFTDYMTRYDCPEETLIKAETWIVKKTPNRYDTQIPSQIFYEYVHDIRERMNKGLRISETLLWEAGIQSIIMASRDVKKTEIESEVLGKAIKDLRKKYRSALRKGTLDSAPDLDVLLLAKELGAGVVAADDGIRVWAERLGLRFLNATSFPKMLKEYLKYYE | not soluble
ENSLIGLNDHTLVTEDDGRRWVTHEPALVYFHNKYWFNIIAMIRNDGVSYYCNLASPYVMDKEALKYIDYDLDIKVLTNGTKHLLDADEYIAHGQLWNYP | not soluble
MSLGTFRFGTSATPEGKTLLVDSKGLILDGKHIIPVMGEIHYSRVPESEWRREIRKMKAGGINIISTYIFWIHHEPEEGKWNWSGNHNLRRFVRICAEENVMLVLRLGPFCHGEVYQGGIPSWVHEKAGQNPKYKIRARTPGFLEDCTELYNTIFAQVNGLLWKDGGPVVGVQIENESRGPWDYLEALKNIAVKAGFDVPFYTRTGWPALRGKEVFGQLLPLYGDYADGFWDRKLEDMPGSYADAFIMRDKRMSSAIATETFSKEELSEDSPSLSSKLSYPYFTCELGGGMMPAYHRRININGKELKPLVICKLGSGSNLPGYYMYHGGTNPYNPLHTMGETQSSPGTNHNDLPHMTYDFQAPLGEVGQVFETPFHEGRFIHQMLTDWGSELLQMNVDSLSRHYARRGAFEFYNDYVRIKNESGTSHVTFKDYRTEGATIDWTTVEPFCKVDGLIYFIEIRGKKPQISVDGKVYTCKLNKQQKAGKLNVCVLSYEKAKTAYKIDGKLLYAKNGGILYKSDSCIVEEVWTKSPVIAATVTEVKKADAPRVVPMGRQAVAAQPVEEDFAKAAVYTINYDTSGINNYDNLFLRINYRGDVARVYADGRLVADNFWNGKEMWVRMADLVGKKVELKILPLRKDAPVYFQKEQKAMIEATKGDYMLGLDSVEVIERHTLEFNDTEGHHHHHH | soluble
GEKTYVKRLVKILLLGAGESGKSTFLKQMRIIHGQDFDQRAREEFRPTIYSNVIKGMRVLVDAREKLHIPWGDNKNQLHGDKLMAFDTRAPMAAQGMVETRVFLQYLPAIRALWEDSGIQNAYDRRREFQLGESVKYFLDNLDKLGVPDYIPSQQDILLARRPTKGIHEYDFEIKNVPFKMVDVGGLRSERKRWFECFDSVTSILFLVSSSEFDQVLMEDRQTNRLTESLNIFETIVNNRVFSNVSIILFLNKTDLLEEKVQVVSIKDYFLEFEGDPHCLRDVQKFLVECFRGKRRDQQQRPLYHHFTTAINTENIRLVFRDVKDTILHDNLKQLMLQ | soluble
MSAVNGLVPSTIFDRINSDMDVSEEMEEIREVLYEMIKTNFPMGVAATHLSEKYHEEFVSKGLGRELPEDWIQQVTAAEEFEAQTRGPITILFVRLSNTSSFKRPPINSVNVRVISTDREPTADELKKIKQRKENEPTEHAKTLSQQSVALKEGSTVSIVYADSPKRFFIRALADDDQYEKIGTTLAEIYAQETPPSALDSRVAIYEIVAGGAYALQDSNGTWFRVIAKQPPQSGQVMCHFVDVGVCEKFPVAAIRLLPPAVHPVMSIGSMAREVRMDVSEEESLRLNNKFVDLTFETKDDGIQVPINLTLSKFDSSDSESLPVVDLQSSDGLSITEFLKKPSGVVRLSTPTKTTSPITPASASTSSLTCLFDKPATIQPMTVAQMPMSAFPANAIFAAGPTDISLRQLSLDPMPDYMYAKLKDECALPDSQLESSPDFGGFYAAFIDDRWERVQCIRASKIDKQAYCVYLLDVGAFQYVRKEAMRRLNSTSPFKKMLMFKCKIGGIKPVAGGEVWSRESHEAVREFFEAACGEPVVVEPTQPGWSQWKQLNAPAVPTCEARLSCCGRDIGDWLIACGLALPINAPIPSPNSQSLLTFVPTPINIVGRNI | not soluble
MSKGFAFKPSALAAKADKLWSDSKTEYTATHSTINHVHLEKKSLGDIIPKSADAPVANEKEVEEAPQAFVFGSKISDRVVNKEGDSTKPGGSDEKTMTATELFQNAVKKDDDKNGAKNFRKEAEQEAERAKEAEKQHAGTSSVEITTGEENDTNIFQAPCKIWAFDKLKNAYSEKGVCNLRINKRVENGLTHHRIVARTSSGTLRVIINSKIFSDMLLERVDKRIRISAMGPEISGVQIFLLKIGFTKTETIPDSDIFYNIMSDLLKLEKGENSRKRKADCDLNASTVKIKDGKEEEEGDQDQVDEGFVIVNKPTEDEVKEEKPAVTAAEESASSSTPSE | not soluble
